Article PMC5847526 (2018)

Biological target: Lumi4-Tb-SNAP-FLT3 on HEK293 cells (UniProt P36888 27-993, Lumi4-Tb on the SNAP tag)
Assay: FRET

Lumi4-Tb-SNAP-FLT3 on HEK293 cells, sequence (P36888 27-993): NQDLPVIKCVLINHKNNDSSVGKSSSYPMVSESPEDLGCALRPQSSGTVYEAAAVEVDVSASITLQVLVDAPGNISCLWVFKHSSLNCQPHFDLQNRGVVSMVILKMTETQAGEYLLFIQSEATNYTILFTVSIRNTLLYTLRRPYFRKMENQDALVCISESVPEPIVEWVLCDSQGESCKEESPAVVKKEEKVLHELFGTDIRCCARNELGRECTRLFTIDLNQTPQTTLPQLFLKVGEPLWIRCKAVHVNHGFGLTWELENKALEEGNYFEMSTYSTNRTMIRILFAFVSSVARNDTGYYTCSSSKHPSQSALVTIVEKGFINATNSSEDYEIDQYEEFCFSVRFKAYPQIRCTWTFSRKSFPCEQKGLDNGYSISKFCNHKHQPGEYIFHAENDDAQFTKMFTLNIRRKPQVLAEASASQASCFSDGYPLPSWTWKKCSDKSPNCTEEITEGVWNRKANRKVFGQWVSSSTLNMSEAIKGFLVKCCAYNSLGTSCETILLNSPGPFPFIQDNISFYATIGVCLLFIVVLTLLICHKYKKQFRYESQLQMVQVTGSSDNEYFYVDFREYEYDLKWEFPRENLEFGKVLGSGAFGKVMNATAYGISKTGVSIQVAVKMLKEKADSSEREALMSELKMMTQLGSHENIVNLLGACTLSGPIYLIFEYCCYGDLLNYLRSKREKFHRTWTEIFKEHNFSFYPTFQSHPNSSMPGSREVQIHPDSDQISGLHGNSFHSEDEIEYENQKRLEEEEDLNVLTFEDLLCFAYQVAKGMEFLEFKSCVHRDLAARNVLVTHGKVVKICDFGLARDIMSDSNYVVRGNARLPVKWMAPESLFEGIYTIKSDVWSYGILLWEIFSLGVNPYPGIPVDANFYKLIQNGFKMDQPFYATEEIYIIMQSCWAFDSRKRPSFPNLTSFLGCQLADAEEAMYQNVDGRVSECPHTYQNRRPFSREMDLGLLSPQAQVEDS

B1: human recombinant FL (rh-FLT3-L), labelled as Red-FL (ligand)
chain: TQDCSFQHSPISSDFAVKIRELSDYLLQDYPVTVASNLQDEELCGGLWRLVLAQRWMERLKTVAGSKMQGLLERVNTEIHFVTKCAFQPPPSCLRFVQTNISRLLQETSEQLVALKPWITRQNFSRCLELQCQPDSSTLPPPWSPRPLEATAPTAPQPPLLLLLLLPVGLLLLAAAWCLHWQRTRRRTPRPGEQVPPVPSPQDLLLVEH
modifications: red fluorophore (Red-FL), position not stated
IC50: 0.57 nM
